This series concerns the molecule itself. The series can be described thus: SEC; Tsc1-D-His6 concentrated to 10 mg/ml, Superdex 75 gel filtration.

B1: Tsc1-D-His6 (domain or fragment, UniProt Q92574 998-1164, looked up)
chain: DGCSDSMVGHNEEASGHNGETKTPRPSSARGSSGSRGGGGSSSSSSELSTPEKPPHQRAGPFSSRWETTMGEASASIPTTVGSLPSSKSFLGMKARELFRNKSESQCDEDGMTSSLSESLKTELGKDLGVEAKIPLNLDGPHPSPPTPDSVGQLHIMDYNETHHEHS
notes: predicted monomer 22.1 kDa; dimer by gel filtration; also called fragment D; source: E. coli Tuner pLysS, purified (Ni-NTA)
Usually stoichiometry N stands for the number of molecules, sites or subunits per partner or assembly. Consider B1, for which the “stoichiometry N” value is 2.

These data come from article PMC5730846, “Tumor suppressor Tsc1 is a new Hsp90 co‐chaperone that facilitates folding of kinase and non‐kinase clients” (The EMBO Journal, 2017).
